From patent publication US20190328788A1 (GENAGON THERAPEUTICS, published 2019)
Ends that are not written are not given here.

T1: transforming growth factor-beta 2 (TGF-β2) (UniProt P61812 303-414)
T1 construct: also called TGFb2; TGFB2
T1 sequence (looked up): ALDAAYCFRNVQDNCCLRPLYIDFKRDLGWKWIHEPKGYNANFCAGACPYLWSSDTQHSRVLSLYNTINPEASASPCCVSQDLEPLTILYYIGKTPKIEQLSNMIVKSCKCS

T2: Growth and Differentiation Factor 15 (GDF15) (UniProt Q99988 197-308, limits assumed)
T2 construct: also called MIC-1; MIC1
T2 sequence (looked up): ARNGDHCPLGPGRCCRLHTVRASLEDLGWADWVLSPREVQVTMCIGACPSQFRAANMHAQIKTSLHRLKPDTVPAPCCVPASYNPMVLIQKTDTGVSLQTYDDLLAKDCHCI

T3: transforming growth factor-beta 3 (TGF-β3) (UniProt P10600 301-412)
T3 construct: also called TGFb3; TGFB3
T3 sequence (looked up): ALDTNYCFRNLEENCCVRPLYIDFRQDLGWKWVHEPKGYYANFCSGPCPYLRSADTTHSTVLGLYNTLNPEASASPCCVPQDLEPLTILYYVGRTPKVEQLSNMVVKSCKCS

B1: CLPTM1 peptide fragment of SEQ ID NO: 31 (peptide)
peptide: FTDFNATSALFWEQHDLVYGG
modifications: also: biotinylated, site not given here
B2: CLPTM1 peptide fragment of SEQ ID NO: 30 (peptide)
peptide: RNLFPKDTLMNLHVYISEHEG
modifications: also: biotinylated, site not given here
B3: CLPTM1 peptide fragment of SEQ ID NO: 26 (peptide)
peptide: LWRWQLYAAQSTKSPWNFLGG
modifications: also: biotinylated, site not given here
B4: CLPTM1 peptide fragment of SEQ ID NO: 28 (peptide)
peptide: GDYYPIIYFNDYWNLQKDYYG
modifications: also: biotinylated, site not given here
notes: also called peptide 21
B5: CLPTM1 peptide fragment of SEQ ID NO: 29 (peptide)
peptide: WQVIKGVLFRIFIIWAISSWG
modifications: also: biotinylated, site not given here
B6: CLPTM1 peptide fragment of SEQ ID NO: 27 (peptide)
peptide: YPINESLASLPLRVSFCPLSG
modifications: also: biotinylated, site not given here
notes: also called peptide 20

Experiments:
Assay in all cases: ELISA, peptide on streptavidin plate, ligand 100 ng/ml
[1] = biological target: T1, transforming growth factor-beta 2 …
Method: (§1) Biotinylated synthetic peptide fragments from CLPTM1 (JPT peptides, Germany) were immobilized in a streptavidin 96 well plate (#15500 Pierce) at 1 μM in PBS over night at +4° C. Plate was then washed 4 times in 300 μl PBS with 0.05% tween-20 (wash buffer). The plate was then blocked with PBS 1% BSA and 0.05% tween-20 (blocking buffer) for 1.5 hours at room temperature, then washed 4 times in wash buffer. Ligands GDF15, TGFb1, TGFb2 and TGFb3 (Abcam) were added in blocking buffer at 100 ng/ml and incubated at room temperature for 2 hours. The plate was then washed 8 times in 300 μL wash buffer with 2× NaCl. An anti-GDF15 antibody was added at 1 μg/ml (R&D Systems, goat polyclonal) or a pan-specific anti-TGFb antibody (R&D Systems, mouse 1 D11), and the plate incubated in blocking buffer for 1 hour at room temperature followed by washing with 4×300 μl wash buffer. HAF017 anti-goat-HRP antibody (to detect the anti-GDF15 antibody) or Santa Cruz sc-2005 Goat anti-mouse-HRP (to detect the pan-specific anti-TGFb antibody) was added and the plate incubated for 1 hour in blocking buffer followed by a wash. TMB substrate was added and stopped after 15 minutes with H₂SO₄. OD 450-620 was measured in an ELISA reader.

[2] = biological target: T2, Growth and Differentiation Factor 15 …
Method: as §1

[3] = biological target: T3, transforming growth factor-beta 3 …
Method: as §1

[4] = biological target: T4, transforming growth factor-beta 1 (TGF-β1) (UniProt P01137 279-390)
T4 construct: also called TGFb1; TGFB1
T4 sequence (P01137 279-390 limits assumed): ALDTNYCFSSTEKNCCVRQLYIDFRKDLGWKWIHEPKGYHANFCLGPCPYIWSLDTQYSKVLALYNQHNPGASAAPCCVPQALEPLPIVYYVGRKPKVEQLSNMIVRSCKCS
Method: as §1

Binder | ELISA OD450 [1] [OD450] | ELISA OD450 [2] [OD450] | ELISA OD450 [3] [OD450] | ELISA OD450 [4] [OD450]
B1 | 0.014 | 0.061 | 0.029 | 0.032
B2 | 0.009 | 0.055 | 0.041 | 0.015
B3 | 0.008 | 0.033 | 0.011 | 0.013
B4 | 0.164 | 0.507 | 0.151 | 1.54
B5 | 0.006 | 0.023 | 0.019 | 0.01
B6 | 0.025 | 0.22 | 0.018 | 0.043
